# In the RNAGym collection of RNA variant scans (doi:10.1021/acssynbio.7b00057):
# B1: Pistol ribozyme (parent)
# chain: GGGUCGUUGUUCCAUAAUCGCGUGGAUAUGGCACGCAAGUUUCUACCGGGCACCGUAAAUGUCCGACUGGAGCCGUUCGGGCGGCUAUAAACAGACCUCAGGCCCGAAGCGUGGCGGCACCUGCCGCCGGUGGUAAAAAAGAUCGGAAGAGCACACGUCU
# Variants of: B1
# Experiment: aptazyme ON/OFF ratio, guanine; higher = stronger switching; co-transcriptional cleavage with and without guanine
row,Variant,aptazyme ON/OFF ratio
1,GGGUCGCUAAUCAAUAAUCGCGUGGAUAUGGCACGCAAGUUUCUACCGGGCACCGUAAAUGUCCGACUGGAGCCGUUCGGGCGGCUAUAAACAGACCUCAGGCCCGAAGCGUGGCGGCACCUGCCGCCGGUGGUAAAAAAGAUCGGAAGAGCACACGUCU [U7C G9A U10A C13A],1.23
2,GGGUCGCUAAUUUAUAAUCGCGUGGAUAUGGCACGCAAGUUUCUACCGGGCACCGUAAAUGUCCGACUGGAGCCGUUCGGGCGGCUAUAAACAGACCUCAGGCCCGAAGCGUGGCGGCACCUGCCGCCGGUGGUAAAAAAGAUCGGAAGAGCACACGUCU [U7C G9A U10A C12U C13U],1.25
3,GGGUCGCUAAUUGAUAAUCGCGUGGAUAUGGCACGCAAGUUUCUACCGGGCACCGUAAAUGUCCGACUGGAGCCGUUCGGGCGGCUAUAAACAGACCUCAGGCCCGAAGCGUGGCGGCACCUGCCGCCGGUGGUAAAAAAGAUCGGAAGAGCACACGUCU [U7C G9A U10A C12U C13G],1.2
4,GGGUCGCUAAUUAAUAAUCGCGUGGAUAUGGCACGCAAGUUUCUACCGGGCACCGUAAAUGUCCGACUGGAGCCGUUCGGGCGGCUAUAAACAGACCUCAGGCCCGAAGCGUGGCGGCACCUGCCGCCGGUGGUAAAAAAGAUCGGAAGAGCACACGUCU [U7C G9A U10A C12U C13A],1.16
5,GGGUCGCUAUUCAAUAAUCGCGUGGAUAUGGCACGCAAGUUUCUACCGGGCACCGUAAAUGUCCGACUGGAGCCGUUCGGGCGGCUAUAAACAGACCUCAGGCCCGAAGCGUGGCGGCACCUGCCGCCGGUGGUAAAAAAGAUCGGAAGAGCACACGUCU [U7C G9A C13A],1.05
6,GGGUCGCUAUUCUAUAAUCGCGUGGAUAUGGCACGCAAGUUUCUACCGGGCACCGUAAAUGUCCGACUGGAGCCGUUCGGGCGGCUAUAAACAGACCUCAGGCCCGAAGCGUGGCGGCACCUGCCGCCGGUGGUAAAAAAGAUCGGAAGAGCACACGUCU [U7C G9A C13U],1.17
7,GGGUCGCUAUUCGAUAAUCGCGUGGAUAUGGCACGCAAGUUUCUACCGGGCACCGUAAAUGUCCGACUGGAGCCGUUCGGGCGGCUAUAAACAGACCUCAGGCCCGAAGCGUGGCGGCACCUGCCGCCGGUGGUAAAAAAGAUCGGAAGAGCACACGUCU [U7C G9A C13G],1.03
8,GGGUCGCUAUUAUAUAAUCGCGUGGAUAUGGCACGCAAGUUUCUACCGGGCACCGUAAAUGUCCGACUGGAGCCGUUCGGGCGGCUAUAAACAGACCUCAGGCCCGAAGCGUGGCGGCACCUGCCGCCGGUGGUAAAAAAGAUCGGAAGAGCACACGUCU [U7C G9A C12A C13U],1.25
9,GGGUCGCUAUUAAAUAAUCGCGUGGAUAUGGCACGCAAGUUUCUACCGGGCACCGUAAAUGUCCGACUGGAGCCGUUCGGGCGGCUAUAAACAGACCUCAGGCCCGAAGCGUGGCGGCACCUGCCGCCGGUGGUAAAAAAGAUCGGAAGAGCACACGUCU [U7C G9A C12A C13A],1.24
10,GGGUCGCUAUUAGAUAAUCGCGUGGAUAUGGCACGCAAGUUUCUACCGGGCACCGUAAAUGUCCGACUGGAGCCGUUCGGGCGGCUAUAAACAGACCUCAGGCCCGAAGCGUGGCGGCACCUGCCGCCGGUGGUAAAAAAGAUCGGAAGAGCACACGUCU [U7C G9A C12A C13G],1.11
11,GGGUCGCUAUUCCAUAAUCGCGUGGAUAUGGCACGCAAGUUUCUACCGGGCACCGUAAAUGUCCGACUGGAGCCGUUCGGGCGGCUAUAAACAGACCUCAGGCCCGAAGCGUGGCGGCACCUGCCGCCGGUGGUAAAAAAGAUCGGAAGAGCACACGUCU [U7C G9A],1.17
12,GGGUCGCUAUUGUAUAAUCGCGUGGAUAUGGCACGCAAGUUUCUACCGGGCACCGUAAAUGUCCGACUGGAGCCGUUCGGGCGGCUAUAAACAGACCUCAGGCCCGAAGCGUGGCGGCACCUGCCGCCGGUGGUAAAAAAGAUCGGAAGAGCACACGUCU [U7C G9A C12G C13U],1.23
13,GGGUCGCUAUUGAAUAAUCGCGUGGAUAUGGCACGCAAGUUUCUACCGGGCACCGUAAAUGUCCGACUGGAGCCGUUCGGGCGGCUAUAAACAGACCUCAGGCCCGAAGCGUGGCGGCACCUGCCGCCGGUGGUAAAAAAGAUCGGAAGAGCACACGUCU [U7C G9A C12G C13A],1.18
14,GGGUCGCUAUUGGAUAAUCGCGUGGAUAUGGCACGCAAGUUUCUACCGGGCACCGUAAAUGUCCGACUGGAGCCGUUCGGGCGGCUAUAAACAGACCUCAGGCCCGAAGCGUGGCGGCACCUGCCGCCGGUGGUAAAAAAGAUCGGAAGAGCACACGUCU [U7C G9A C12G C13G],1.2
15,GGGUCGCUAUUGCAUAAUCGCGUGGAUAUGGCACGCAAGUUUCUACCGGGCACCGUAAAUGUCCGACUGGAGCCGUUCGGGCGGCUAUAAACAGACCUCAGGCCCGAAGCGUGGCGGCACCUGCCGCCGGUGGUAAAAAAGAUCGGAAGAGCACACGUCU [U7C G9A C12G],1.14
16,GGGUCGCUAUUUCAUAAUCGCGUGGAUAUGGCACGCAAGUUUCUACCGGGCACCGUAAAUGUCCGACUGGAGCCGUUCGGGCGGCUAUAAACAGACCUCAGGCCCGAAGCGUGGCGGCACCUGCCGCCGGUGGUAAAAAAGAUCGGAAGAGCACACGUCU [U7C G9A C12U],1.16
17,GGGUCGCUAUUACAUAAUCGCGUGGAUAUGGCACGCAAGUUUCUACCGGGCACCGUAAAUGUCCGACUGGAGCCGUUCGGGCGGCUAUAAACAGACCUCAGGCCCGAAGCGUGGCGGCACCUGCCGCCGGUGGUAAAAAAGAUCGGAAGAGCACACGUCU [U7C G9A C12A],1.33
18,GGGUCGCUAAUAAAUAAUCGCGUGGAUAUGGCACGCAAGUUUCUACCGGGCACCGUAAAUGUCCGACUGGAGCCGUUCGGGCGGCUAUAAACAGACCUCAGGCCCGAAGCGUGGCGGCACCUGCCGCCGGUGGUAAAAAAGAUCGGAAGAGCACACGUCU [U7C G9A U10A C12A C13A],1.17

row,Variant,aptazyme ON/OFF ratio
1,GGGUCGCUAAUAUAUAAUCGCGUGGAUAUGGCACGCAAGUUUCUACCGGGCACCGUAAAUGUCCGACUGGAGCCGUUCGGGCGGCUAUAAACAGACCUCAGGCCCGAAGCGUGGCGGCACCUGCCGCCGGUGGUAAAAAAGAUCGGAAGAGCACACGUCU [U7C G9A U10A C12A C13U],1.05
2,GGGUCGCUAAUAGAUAAUCGCGUGGAUAUGGCACGCAAGUUUCUACCGGGCACCGUAAAUGUCCGACUGGAGCCGUUCGGGCGGCUAUAAACAGACCUCAGGCCCGAAGCGUGGCGGCACCUGCCGCCGGUGGUAAAAAAGAUCGGAAGAGCACACGUCU [U7C G9A U10A C12A C13G],1.14
3,GGGUCGCUAUUUAAUAAUCGCGUGGAUAUGGCACGCAAGUUUCUACCGGGCACCGUAAAUGUCCGACUGGAGCCGUUCGGGCGGCUAUAAACAGACCUCAGGCCCGAAGCGUGGCGGCACCUGCCGCCGGUGGUAAAAAAGAUCGGAAGAGCACACGUCU [U7C G9A C12U C13A],1.22
4,GGGUCGCUAUUUUAUAAUCGCGUGGAUAUGGCACGCAAGUUUCUACCGGGCACCGUAAAUGUCCGACUGGAGCCGUUCGGGCGGCUAUAAACAGACCUCAGGCCCGAAGCGUGGCGGCACCUGCCGCCGGUGGUAAAAAAGAUCGGAAGAGCACACGUCU [U7C G9A C12U C13U],1.22
5,GGGUCGCUAUUUGAUAAUCGCGUGGAUAUGGCACGCAAGUUUCUACCGGGCACCGUAAAUGUCCGACUGGAGCCGUUCGGGCGGCUAUAAACAGACCUCAGGCCCGAAGCGUGGCGGCACCUGCCGCCGGUGGUAAAAAAGAUCGGAAGAGCACACGUCU [U7C G9A C12U C13G],1.18
6,GGGUCGCUGUUUGAUAAUCGCGUGGAUAUGGCACGCAAGUUUCUACCGGGCACCGUAAAUGUCCGACUGGAGCCGUUCGGGCGGCUAUAAACAGACCUCAGGCCCGAAGCGUGGCGGCACCUGCCGCCGGUGGUAAAAAAGAUCGGAAGAGCACACGUCU [U7C C12U C13G],1.28
7,GGGUCGCUGUUUAAUAAUCGCGUGGAUAUGGCACGCAAGUUUCUACCGGGCACCGUAAAUGUCCGACUGGAGCCGUUCGGGCGGCUAUAAACAGACCUCAGGCCCGAAGCGUGGCGGCACCUGCCGCCGGUGGUAAAAAAGAUCGGAAGAGCACACGUCU [U7C C12U C13A],1.55
8,GGGUCGCUGUUUUAUAAUCGCGUGGAUAUGGCACGCAAGUUUCUACCGGGCACCGUAAAUGUCCGACUGGAGCCGUUCGGGCGGCUAUAAACAGACCUCAGGCCCGAAGCGUGGCGGCACCUGCCGCCGGUGGUAAAAAAGAUCGGAAGAGCACACGUCU [U7C C12U C13U],1.05
9,GGGUCGCUAAUGGAUAAUCGCGUGGAUAUGGCACGCAAGUUUCUACCGGGCACCGUAAAUGUCCGACUGGAGCCGUUCGGGCGGCUAUAAACAGACCUCAGGCCCGAAGCGUGGCGGCACCUGCCGCCGGUGGUAAAAAAGAUCGGAAGAGCACACGUCU [U7C G9A U10A C12G C13G],1.18
10,GGGUCGCUAAUGAAUAAUCGCGUGGAUAUGGCACGCAAGUUUCUACCGGGCACCGUAAAUGUCCGACUGGAGCCGUUCGGGCGGCUAUAAACAGACCUCAGGCCCGAAGCGUGGCGGCACCUGCCGCCGGUGGUAAAAAAGAUCGGAAGAGCACACGUCU [U7C G9A U10A C12G C13A],1.35
11,GGGUCGCUAAUGUAUAAUCGCGUGGAUAUGGCACGCAAGUUUCUACCGGGCACCGUAAAUGUCCGACUGGAGCCGUUCGGGCGGCUAUAAACAGACCUCAGGCCCGAAGCGUGGCGGCACCUGCCGCCGGUGGUAAAAAAGAUCGGAAGAGCACACGUCU [U7C G9A U10A C12G C13U],1.21
12,GGGUCGCUAAUCCAUAAUCGCGUGGAUAUGGCACGCAAGUUUCUACCGGGCACCGUAAAUGUCCGACUGGAGCCGUUCGGGCGGCUAUAAACAGACCUCAGGCCCGAAGCGUGGCGGCACCUGCCGCCGGUGGUAAAAAAGAUCGGAAGAGCACACGUCU [U7C G9A U10A],1.88
13,GGGUCGCUGUUCUAUAAUCGCGUGGAUAUGGCACGCAAGUUUCUACCGGGCACCGUAAAUGUCCGACUGGAGCCGUUCGGGCGGCUAUAAACAGACCUCAGGCCCGAAGCGUGGCGGCACCUGCCGCCGGUGGUAAAAAAGAUCGGAAGAGCACACGUCU [U7C C13U],1.18
14,GGGUCGCUGUUCGAUAAUCGCGUGGAUAUGGCACGCAAGUUUCUACCGGGCACCGUAAAUGUCCGACUGGAGCCGUUCGGGCGGCUAUAAACAGACCUCAGGCCCGAAGCGUGGCGGCACCUGCCGCCGGUGGUAAAAAAGAUCGGAAGAGCACACGUCU [U7C C13G],1.05
15,GGGUCGCUGUUCAAUAAUCGCGUGGAUAUGGCACGCAAGUUUCUACCGGGCACCGUAAAUGUCCGACUGGAGCCGUUCGGGCGGCUAUAAACAGACCUCAGGCCCGAAGCGUGGCGGCACCUGCCGCCGGUGGUAAAAAAGAUCGGAAGAGCACACGUCU [U7C C13A],1.14
16,GGGUCGCUAAUACAUAAUCGCGUGGAUAUGGCACGCAAGUUUCUACCGGGCACCGUAAAUGUCCGACUGGAGCCGUUCGGGCGGCUAUAAACAGACCUCAGGCCCGAAGCGUGGCGGCACCUGCCGCCGGUGGUAAAAAAGAUCGGAAGAGCACACGUCU [U7C G9A U10A C12A],1.15
17,GGGUCGCUAAUUCAUAAUCGCGUGGAUAUGGCACGCAAGUUUCUACCGGGCACCGUAAAUGUCCGACUGGAGCCGUUCGGGCGGCUAUAAACAGACCUCAGGCCCGAAGCGUGGCGGCACCUGCCGCCGGUGGUAAAAAAGAUCGGAAGAGCACACGUCU [U7C G9A U10A C12U],1.35
18,GGGUCGCUAAUGCAUAAUCGCGUGGAUAUGGCACGCAAGUUUCUACCGGGCACCGUAAAUGUCCGACUGGAGCCGUUCGGGCGGCUAUAAACAGACCUCAGGCCCGAAGCGUGGCGGCACCUGCCGCCGGUGGUAAAAAAGAUCGGAAGAGCACACGUCU [U7C G9A U10A C12G],1.18
